# Tested on: PPIs identified as affected by the SH3 domain deletions
# Experiment: Liquid DHFR-PCA low-throughput validation of PPIs affected by SH3 deletion (Fig. S1D-E)
# Format: cell-based, Saccharomyces cerevisiae
# Settings: label = prey, liquid DHFR-PCA, prey _1 = lost, _2 = gained in screen
# Summary of the method: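 Yeast diploids from DHFR-PCA mating grown 48 h in synthetic complete MSG medium pH 6.0 with NAT and HPH, normalized to 1 OD and diluted to 0.1 OD in liquid PCA selection medium. Growth followed by OD every 15 min for 72 h at 30 °C.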
molecule,measurement,setting,value
"YIL033C_2 (protein, UniProt P07278 2-416, looked up) cAMP-dependent protein kinase …: VSSLPKESQAELQLFQNEINAANPSDFLQFSANYFNKRLEQQRAFLKAREPEFKAKNIVLFPEPEESFSRPQSAQSQSRSRSSVMFKSPFVNEDPHSNVFKSGFNLDPHEQDTHQQAQEEQQHTREKTSTPPLPMHFNAQRRTSVSGETLQPNNFDDWTPDHYKEKSEQQLQRLEKSIRNNFLFNKLDSDSKRLVINCLEEKSVPKGATIIKQGDQGDYFYVVEKGTVDFYVNDNKVNSSGPGSSFGELALMYNSPRAATVVATSDCLLWALDRLTFRKILLGSSFKKRLMYDDLLKSMPVLKSLTTYDRAKLADALDTKIYQPGETIIREGDQGENFYLIEYGAVDVSKKGQGVINKLKDHDYFGEVALLNDLPRQATVTATKRTKVATLGKSGFQRLLGPAVDVLKLNDPTRH",Ratio (Deletedscore / WTscore),bait CYK3,1.015
"YHR064C_2 (protein, UniProt P38788 1-538, looked up) Ribosome-associated complex …: MSSPVIGITFGNTSSSIAYINPKNDVDVIANPDGERAIPSALSYVGEDEYHGGQALQQLIRNPKNTIINFRDFIGLPFDKCDVSKCANGAPAVEVDGKVGFVISRGEGKEEKLTVDEVVSRHLNRLKLAAEDYIGSAVKEAVLTVPTNFSEEQKTALKASAAKIGLQIVQFINEPSAALLAHAEQFPFEKDVNVVVADFGGIRSDAAVIAVRNGIFTILATAHDLSLGGDNLDTELVEYFASEFQKKYQANPRKNARSLAKLKANSSITKKTLSNATSATISIDSLADGFDYHASINRMRYELVANKVFAQFSSFVDSVIAKAELDPLDIDAVLLTGGVSFTPKLTTNLEYTLPESVEILGPQNKNASNNPNELAASGAALQARLISDYDADELAEALQPVIVNTPHLKKPIGLIGAKGEFHPVLLAETSFPVQKKLTLKQAKGDFLIGVYEGDHHIEEKTLEPIPKEENAEEDDESEWSDDEPEVVREKLYTLGTKLMELGIKNANGVEIIFNINKDGALRVTARDLKTGNAVKGEL",Ratio (Deletedscore / WTscore),bait BZZ1-2,1.071
"YNL229C_2 (protein, UniProt P23202 2-354, looked up) Transcriptional regulator URE2: MNNNGNQVSNLSNALRQVNIGNRNSNTTTDQSNINFEFSTGVNNNNNNNSSSNNNNVQNNNSGRNGSQNNDNENNIKNTLEQHRQQQQAFSDMSHVEYSRITKFFQEQPLEGYTLFSHRSAPNGFKVAIVLSELGFHYNTIFLDFNLGEHRAPEFVSVNPNARVPALIDHGMDNLSIWESGAILLHLVNKYYKETGNPLLWSDDLADQSQINAWLFFQTSGHAPMIGQALHFRYFHSQKIASAVERYTDEVRRVYGVVEMALAERREALVMELDTENAAAYSAGTTPMSQSRFFDYPVWLVGDKLTIADLAFVPWNNVVDRIGINIKIEFPEVYKWTKHMMRRPAVIKALRGE",Ratio (Deletedscore / WTscore),bait HSE1,0.8445
"YBL071W-A_2 (protein, UniProt Q3E840 1-82, looked up) Diphthamide biosynthesis …: MSTYDEIEIEDMTFEPENQMFTYPCPCGDRFQIYLDDMFEGEKVAVCPSCSLMIDVVFDKEDLAEYYEEAGIHPPEPIAAAA",Ratio (Deletedscore / WTscore),bait ABP1,1.188
"YML035C_2 (protein, UniProt P15274 1-810, looked up) AMP deaminase: MDNQATQRLNDLSLEPAPSHDEQDGSGLVIDIDQRKIGDEQAGVVVDDETPPLEQQDSHESLAADSRNANFSYHENQQLLENGTKQLALDEHDSHSAILEQPSHSTNCSSSNIAAMNKGHDSADHASQNSGGKPRTLSASAQHILPETLKSFAGAPVVNKQVRTSASYKMGMLADDASQQFLDDPSSELIDLYSKVAECRNLRAKYQTISVQNDDQNPKNKPGWVVYPPPPKPSYNSDTKTVVPVTNKPDAEVFDFTKCEIPGEDPDWEFTLNDDDSYVVHRSGKTDELIAQIPTLRDYYLDLEKMISISSDGPAKSFAYRRLQYLEARWNLYYLLNEYQETSVSKRNPHRDFYNVRKVDTHVHHSACMNQKHLLRFIKHKLRHSKDEKVIFRDGKLLTLDEVFRSLHLTGYDLSIDTLDMHAHKDTFHRFDKFNLKYNPIGESRLREIFLKTNNYIKGTYLADITKQVIFDLENSKYQNCEYRISVYGRSLDEWDKLASWVIDNKVISHNVRWLVQIPRLYDIYKKTGIVQSFQDICKNLFQPLFEVTKNPQSHPKLHVFLQRVIGFDSVDDESKVDRRFHRKYPKPSLWEAPQNPPYSYYLYYLYSNVASLNQWRAKRGFNTLVLRPHCGEAGDPEHLVSAYLLAHGISHGILLRKVPFVQYLYYLDQVGIAMSPLSNNALFLTYDKNPFPRYFKRGLNVSLSTDDPLQFSYTREPLIEEYSVAAQIYKLSNVDMCELARNSVLQSGWEAQIKKHWIGKDFDKSGVEGNDVVRTNVPDIRINYRYDTLSTELELVNHFANFKRTIEEK",Ratio (Deletedscore / WTscore),bait HSE1,1.186
same,Ratio (Deletedscore / WTscore),bait LSB3,1.062
"YBR177C_2 (protein, UniProt P38295 1-451, looked up) Medium-chain fatty acid ethyl …: MSEVSKWPAINPFHWGYNGTVSHIVGENGSIKLHLKDNKEQVDFDEFANKYVPTLKNGAQFKLSPYLFTGILQTLYLGAADFSKKFPVFYGREIVKFSDGGVCTADWLIDSWKKDYEFDQSTTSFDKKKFDKDEKATHPEGWPRLQPRTRYLKDNELEELREVDLPLVVILHGLAGGSHEPIIRSLAENLSRSGRFQVVVLNTRGCARSKITTRNLFTAYHTMDIREFLQREKQRHPDRKLYAVGCSFGATMLANYLGEEGDKSPLSAAATLCNPWDLLLSAIRMSQDWWSRTLFSKNIAQFLTRTVQVNMGELGVPNGSLPDHPPTVKNPSFYMFTPENLIKAKSFKSTREFDEVYTAPALGFPNAMEYYKAASSINRVDTIRVPTLVINSRDDPVVGPDQPYSIVEKNPRILYCRTDLGGHLAYLDKDNNSWATKAIAEFFTKFDELVV",Ratio (Deletedscore / WTscore),bait LSB3,1.519
"YDL225W_2 (protein, UniProt Q07657 2-551, looked up) Seventh homolog of septin 1: STASTPPINLFRRKKEHKRGITYTMLLCGPAGTGKTAFANNLLETKIFPHKYQYGKSNASISSNPEVKVIAPTKVVSFNSKNGIPSYVSEFDPMRANLEPGITITSTSLELGGNKDQGKPEMNEDDTVFFNLIMTHGIGENLDDSLCSEEVMSYLEQQFDIVLAEETRIKRNPRFEDTRVHVALYFIEPTGHGLREVDVELMKSISKYTNVLPIITRADSFTKEELTQFRKNIMFDVERYNVPIYKFEVDPEDDDLESMEENQALASLQPFAIITSDTRDSEGRYVREYPWGIISIDDDKISDLKVLKNVLFGSHLQEFKDTTQNLLYENYRSEKLSSVANAEEIGPNSTKRQSNAPSLSNFASLISTGQFNSSQTLANNLRADTPRNQVSGNFKENEYEDNGEHDSAENEQEMSPVRQLGREIKQENENLIRSIKTESSPKFLNSPDLPERTKLRNISETVPYVLRHERILARQQKLEELEAQSAKELQKRIQELERKAHELKLREKLINQNKLNGSSSSINSLQQSTRSQIKKNDTYTDLASIASGRD",Ratio (Deletedscore / WTscore),bait BZZ1-2,1.566
same,Ratio (Deletedscore / WTscore),bait HOF1,1.663

# From publication PMC7954794, “Protein context shapes the specificity of SH3 domain-mediated interactions in vivo” (Nature Communications, 2021)
